Patent publication US20240255495 (UNIVERSITY OF PITTSBURGH-OF THE COMMONWEALTH SYSTEM OF …, published 2024)

How the values were obtained:
[1] = target: thrombin (UniProt P00734;P00734 P00734:328-363,P00734:364-622); test: FP
[2] = target: T1, PTK7 (protein tyrosine kinase 7), recombinant (UniProt Q13308 Q13308:31-704)
T1 sequence: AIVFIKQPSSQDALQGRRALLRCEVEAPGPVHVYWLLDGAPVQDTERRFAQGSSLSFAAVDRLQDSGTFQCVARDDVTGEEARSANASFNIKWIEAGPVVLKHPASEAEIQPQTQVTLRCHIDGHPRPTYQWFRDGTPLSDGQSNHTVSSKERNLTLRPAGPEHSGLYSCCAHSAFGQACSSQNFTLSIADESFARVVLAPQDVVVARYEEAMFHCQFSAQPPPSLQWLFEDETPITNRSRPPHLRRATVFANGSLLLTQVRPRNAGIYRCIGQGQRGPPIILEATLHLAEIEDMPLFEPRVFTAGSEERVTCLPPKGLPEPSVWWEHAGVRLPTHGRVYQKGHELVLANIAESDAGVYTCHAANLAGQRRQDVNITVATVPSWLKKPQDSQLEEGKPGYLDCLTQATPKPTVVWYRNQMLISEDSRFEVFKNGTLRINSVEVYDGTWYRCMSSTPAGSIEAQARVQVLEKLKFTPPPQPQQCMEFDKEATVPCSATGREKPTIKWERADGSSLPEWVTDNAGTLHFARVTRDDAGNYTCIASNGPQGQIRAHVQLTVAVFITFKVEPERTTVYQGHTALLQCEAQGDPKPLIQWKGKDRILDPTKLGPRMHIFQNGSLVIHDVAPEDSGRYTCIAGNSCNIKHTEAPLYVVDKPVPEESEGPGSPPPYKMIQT

Row | Binder | Kd [1] [nM] | binding result [2]
1 | GGTTGGTGTGGTTGG (ssDNA) [TBA unmodified] | 220 | –
2 | ATCTAACTGCTGCGCCGCCGGGAAAATACTGTACGGTTAGA (ssDNA, T27 conjugated to pyridinium oxime catalyst PyOx) [sgc8c(27)-PyOx] | – | binds
